Laboratory results taken from article PMC10784492, “De novo biosynthesis of antiarrhythmic alkaloid ajmaline” (Nature Communications, 2024).

B1: tDHVR (RsRR4, N-terminal truncated; tRR4) (Rauvolfia serpentina) (protein)
chain: MAGKSPEEQHPVKAYGWAATDSSGILSPFKFSRRATGDHDVRVKILYAGVCHSDLQSARNDMGCFTYPLVPGFETVGTATEVGSKVTKVKVGDKVAVGIMVGSCGKCDECVNDRECYCPEVITSYGRIDHDGTPTYGGFSSETVANEKFVFCFPEKLPMAAGAPLLNAGVSVYSAMRFYGLDKPGMHLGVVGLGGLGHLAVKFAKAFGVKVTVISTSTSKKGEAINDLGADAFLVSTDAEQMQAGSGTLDGILDTVPVVHPIEALLGLLKNHTKLVLVGATMGSFELPILPLGVGRKSVVSTIGGSTKETQEMLDFAAEHDITASVEIIPMDYVNTAMERIEKGDVRYRFVIDIGNTLTPPES
notes: N-terminally truncated 363-residue version of the 413-residue full protein (extra N-terminal 50 removed); his-tagged in pET30b(+), E. coli, Ni-NTA; OQ591882 is printed for both DHVR and RsAAE1

Experiments:
RsNNMT = biological target: T1, RsNNMT (Rauvolfia serpentina, UniProt A0A075D6M1); assay: LC-MS/MS detection of ajmaline in coupled reaction; format: biochemical; settings: 100 μM SAM, 20 mM Tris-HCl pH 7.5, 30 °C; norajmaline formed in situ by RsAAE1/2
T1 construct: gene NNMT; N-terminal His tag, purified from E. coli

[1] = substrate: C/C=C1/[C@@H](O)N2[C@H]3C[C@@]45c6ccccc6N[C@H]4[C@@H]2C[C@@H]1C3[C@H]5OC(C)=O; assay: LC-MS/MS product quantification, Michaelis-Menten fit; format: biochemical, Rauvolfia serpentina; settings: 1 mM NADPH, 20 mM Tris-HCl pH 7.5, 30 °C, 2 min, 19,20-reduction
From the text: LC-MS/MS product quantification, Michaelis-Menten fit on tDHVR (RsRR4, N-terminal truncated; tRR4)

T1 sequence (A0A075D6M1 whole entry): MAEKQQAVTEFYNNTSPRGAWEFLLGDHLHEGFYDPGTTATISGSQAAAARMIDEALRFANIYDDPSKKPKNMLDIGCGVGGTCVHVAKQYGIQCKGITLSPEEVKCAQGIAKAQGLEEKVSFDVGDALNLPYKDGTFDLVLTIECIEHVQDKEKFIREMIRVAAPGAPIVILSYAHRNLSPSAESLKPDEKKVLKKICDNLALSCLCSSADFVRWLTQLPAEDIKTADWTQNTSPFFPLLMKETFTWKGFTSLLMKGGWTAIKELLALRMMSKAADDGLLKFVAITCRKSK

| Molecule | LC-MS/MS detection of ajmaline in coupled reaction (RsNNMT) | Km [1] [µM] | kcat [1] [s⁻¹] |
| --- | --- | --- | --- |
| CC[C@H]1[C@@H]2C[C@H]3[C@@H]4Nc5ccccc5[C@]45C[C@@H]([C@H]2[C@H]5O)N3[C@@H]1O [norajmaline] | ajmaline, also confirmed with an authentic standard, was produced at the expense of norajmaline |  |  |
| B1 |  | 32.0 | 10.4 |
